Assay results taken from US20130209439A1, “INHIBITORS OF PDE4 BINDING TO HSP20” (THE UNIVERSITY COURT OF THE UNIVERSITY OF GLASGOW, priority 2010, published 2013).
Where no end group is shown, it is not given here.

Key:
[1] = molecular target: T1, PDE4D5-HSP20 complex (Homo sapiens, UniProt O14558); experiment: Immunoprecipitation of HSP20 probed for PDE4D5, HEK293 cell lysate; type: binding; conditions: HEK293 cells transfected with HSP20 and PDE4D5, increasing peptide concentrations
T1 construct: containing the open reading frame of Hsp20 in pENTR221 vector, was used to generate pcDNA6.2-Hsp20; expressed in transfected cells; host or cells: HEK293 cells
T1 sequence (O14558 1-160): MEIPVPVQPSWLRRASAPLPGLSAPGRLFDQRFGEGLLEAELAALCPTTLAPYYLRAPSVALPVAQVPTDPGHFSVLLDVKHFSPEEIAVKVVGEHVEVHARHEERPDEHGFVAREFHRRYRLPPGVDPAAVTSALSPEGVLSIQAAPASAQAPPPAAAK
Description: (§1) FIG. 6. Peptide disruption of the PDE4D-HSP20 complex promotes PKA phosphorylation on Ser16. A, Upper panel. HEK293 cells were transfected with HSP20 and PDE4D5. Immunoprecipitation of HSP20 done in the presence increasing concentrations of Peptide 906 (SEQ ID NO: 36) and Peptide control (SEQ ID NO: 37) were probed for PDE4D5. Lower panel. Densitometric analysis of amount of PDE4D5 in HSP20 immunoprecipitates normalised to expression level. Data representative of n=3. B, Purified preparations of HSP20-His and PDE4D5-GST were subject to an ELISA assay containing increasing amounts of ‘Peptide 906’ and ‘peptide control’. C, Upper panel, HSP20 was transfected into HEK293 cells and treated with ‘Peptide 906’ for indicated times. Cellular lysates were blotted for HSP20 and phospho-HSP20. Middle panel, HSP20 was transfected into HEK293 cells and treated with ‘Peptide 906’ or ‘peptide control’ for indicated times. Cellular lysates were blotted for HSP20 and phospho-HSP20. Lower panel, Densitometric analysis of phosphorylation of HSP20 normalised to expression level (n=3).
HEK293B2 cells are a stable cell line overexpressing the GFP-tagged β2AR were cultured as previously described^48. […] Protein concentration of lysates were determined using the Bradford assay and all samples were equalised for protein concentration. […]

[2] = molecular target: T2, His-HSP20 / GST-PDE4D5 (Homo sapiens, UniProt O14558); experiment: Hsp20/PDE4D5 ELISA assay with purified proteins; type: binding; conditions: increasing amounts of peptide
T2 construct: made in house; host or cells: E. coli (BL21 for His-Hsp20)
T2 sequence (O14558 1-160): T1 sequence (O14558 1-160)
Description: as §1
His-HSP20 and GST-PDE4D5 were purified as previously described. […] Plates were read as soon as possible using the luminescence program on a Packard Fusion plate reader (1 s reading per well). […]

[3] = system: neonatal cardiac myocytes; experiment: Cardiac myocyte cell size, manual cross-sectional area; type: cell-based, rat; conditions: 24 hour isoprenaline 10 μM, 30 min pre-treatment with 10 μM peptide
Experimental: FIG. 7. Peptide disruption of the PDE4D-HSP20 complex attenuates the hypertrophic response triggered by constant […]-agonist treatment. A, Upper panel. The area covered by isolated cardiac myocytes was used as a measure of cell size. Lower panel, Graphical depiction of the mean areas (N=100) of cells following 24 hours of indicated treatments. B, impedance measurements were used to calculate continuous normalised cell index using exCELLigence technology Normalised mean (n=4) cell index after 24 hours of indicated treatments.
Cardiomyocytes were plated out on gelatin (Sigma) pre-coated 6-well plates and placed in an incubator at 37° C. and an atmosphere of 5% CO2. After 24 h the cardiomyocytes were cultured in a serum-free condition for 48 h before experiments. The cardiomyocytes were then challenged for 24 h with either 10 μM isoprenaline alone or isoprenaline following a 30 min pre-treatment with 10 μM rolipram, 10 μM bs906 or 10 μM control peptide. Thereafter, cell size was determined on phase-contrast microscope. […] from randomly selected microscope images (400×) were captured digitally and analysed. Cross-sectional area was determined by the following formula: cross-sectional area=(radius)^2×π. Values are expressed as means±SE of five separate culture preparations. A f-test was performed to compare the two groups, and the P values are indicated.

Substance: Peptide 906: stearoylated, cell-permeable disrupter peptide of PDE4D5 residues E468-K492 (SEQ ID NO: 36) (ENHHLAVGFKLLQEENSDIFQNLTK; also: stearoylated, site not given here)
- association between PDE4D5 and HSP20 in immunoprecipitation from cellular lysate [1]: attenuated the association between PDE4D5 and HSP20
- association between PDE4D5 and HSP20 in ELISA with purified proteins [2]: attenuated the association between PDE4D5 and HSP20
- cell size (cross-sectional area) of cardiac myocytes [3]: could be rescued
